The record followed here is publication PMC10330345 (2023).

In this assay the target is BTN3A1 272-513 (Homo sapiens, UniProt O00481). The assay is described as follows: ITC.

By Kd is commonly meant the free concentration of one partner at which half of the binding sites on the other are occupied at equilibrium, for simple one-to-one binding. Higher therefore signals weaker binding.

BTN3A1 272-513, sequence (O00481 272-513): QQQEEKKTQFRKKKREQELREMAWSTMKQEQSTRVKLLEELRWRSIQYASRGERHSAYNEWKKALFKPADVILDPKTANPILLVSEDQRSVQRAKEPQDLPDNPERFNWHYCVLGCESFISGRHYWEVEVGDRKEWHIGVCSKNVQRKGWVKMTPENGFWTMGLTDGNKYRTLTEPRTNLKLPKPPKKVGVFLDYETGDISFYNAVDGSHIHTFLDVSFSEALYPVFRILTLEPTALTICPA

B1: BTN2A1 271-527 (protein)
chain: KLQKEKKILSGEKEFERETREIALKELEKERVQKEEELQVKEKLQEEGRARRTFLHAVDVVLDPDTAHPDLFLSEDRRSVRRCPFRHLGESVPDNPERFDSQPCVLGRESFASGKHYWEVEVENVIEWTVGVCRDSVERKGEVLLIPQNGFWTLEMHKGQYRAVSSPDRILPLKESLCRVGVFLDYEAGDVSFYNMRDRSHIYTCPRSAFSVPVRPFFRLGCEDSPIFICPALTGANGVTVPEEGLTLHRVGTHQSL
In turn, B1 had a Kd of 710 nM.

B2: BTN2A1 271-527 (protein)
chain: KLQKEKKILSGEKEFERETREIALKELEKERVQKEEELQVKEKLQEEGRWRRTFLHAVDVVLDPDTAHPDLFLSEDRRSVRRCPFRHLGESVPDNPERFDSQPCVLGRESFASGKHYWEVEVENVIEWTVGVCRDSVERKGEVLLIPQNGFWTLEMHKGQYRAVSSPDRILPLKESLCRVGVFLDYEAGDVSFYNMRDRSHIYTCPRSAFSVPVRPFFRLGCEDSPIFICPALTGANGVTVPEEGLTLHRVGTHQSL
Molecule B2 gave a Kd of 1160 nM.

B3: BTN2A1 271-527 (protein)
chain: KLQKEKKILSGEKEFERETREIALKELEKERVQKEEELQVKEKLQEELRARRTFLHAVDVVLDPDTAHPDLFLSEDRRSVRRCPFRHLGESVPDNPERFDSQPCVLGRESFASGKHYWEVEVENVIEWTVGVCRDSVERKGEVLLIPQNGFWTLEMHKGQYRAVSSPDRILPLKESLCRVGVFLDYEAGDVSFYNMRDRSHIYTCPRSAFSVPVRPFFRLGCEDSPIFICPALTGANGVTVPEEGLTLHRVGTHQSL
In turn, B3 showed a Kd of 670 nM.
